From publication PMC11832421, “Structural basis for the inhibition of PRC2 by active transcription histone posttranslational modifications” (Nature Structural & Molecular Biology, 2025)

B1: EED (core subunit, within the PRC2 complexes) (natural protein)
chain: not shown
notes: EED; Stood in the assay as a subunit of m1 or m2; source: Sf9 insect cells (baculovirus), purified as part of the PRC2 complex
B2: JARID2 1–450 with K116me3 (within PRC2AJ1–450) (domain or fragment, UniProt Q92833 1-450, looked up)
chain: MSKERPKRNIIQKKYDDSDGIPWSEERVVRKVLYLSLKEFKNSQKRQHAEGIAGSLKTVNGLLGNDQSKGLGPASEQSENEKDDASQVSSTSNDVSSSDFEEGPSRKRPRLQAQRKFAQSQPNSPSTTPVKIVEPLLPPPATQISDLSKRKPKTEDFLTFLCLRGSPALPNSMVYFGSSQDEEEVEEEDDETEDVKTATNNASSSCQSTPRKGKTHKHVHNGHVFNGSSRSTREKEPVQKHKSKEATPAKEKHSDHRADSRREQASANHPAAAPSTGSSAKGLAATHHHPPLHRSAQDLRKQVSKVNGVTRMSSLGAGVTSAKKMREVRPSPSKTVKYTATVTKGAVTYTKAKRELVKDTKPNHHKPSSAVNHTISGKTESSNAKTRKQVLSLGGASKSTGPAVNGLKVSGRLNPKSCTKEVGGRQLREGLQLREGLRNSKRRLEEAHQA
modifications: trimethyl-lysine at K116 (JARID2 K116me3)
notes: JARID2 residues 1–450; Stood in the assay as a subunit of m1; also called JARID2 K116me3; methylated JARID2; source: Sf9 insect cells (baculovirus), purified as part of the PRC2 complex

Tests used:
[1] = molecular target: B2; assay: cryo-EM structure; 100 nM nucleosome (biotinylated DNA, held on streptavidin affinity grids) with 500 nM PRC2 in 50 mM HEPES pH 7.5, 50 mM KCl, 0.5 mM TCEP, 100 µM S-adenosyl homocysteine; 3–5 min at room temperature; settings: both partners purified
[2] = molecular target: T1, EZH2 (catalytic subunit, within the PRC2 complexes) (UniProt Q15910 1-746); assay: as above; settings: both partners purified
T1 construct: EZH2; Stood in the assay as a subunit of m1 or m2; source: Sf9 insect cells (baculovirus), purified as part of the PRC2 complex
T1 sequence (Q15910 whole entry, one chain of several): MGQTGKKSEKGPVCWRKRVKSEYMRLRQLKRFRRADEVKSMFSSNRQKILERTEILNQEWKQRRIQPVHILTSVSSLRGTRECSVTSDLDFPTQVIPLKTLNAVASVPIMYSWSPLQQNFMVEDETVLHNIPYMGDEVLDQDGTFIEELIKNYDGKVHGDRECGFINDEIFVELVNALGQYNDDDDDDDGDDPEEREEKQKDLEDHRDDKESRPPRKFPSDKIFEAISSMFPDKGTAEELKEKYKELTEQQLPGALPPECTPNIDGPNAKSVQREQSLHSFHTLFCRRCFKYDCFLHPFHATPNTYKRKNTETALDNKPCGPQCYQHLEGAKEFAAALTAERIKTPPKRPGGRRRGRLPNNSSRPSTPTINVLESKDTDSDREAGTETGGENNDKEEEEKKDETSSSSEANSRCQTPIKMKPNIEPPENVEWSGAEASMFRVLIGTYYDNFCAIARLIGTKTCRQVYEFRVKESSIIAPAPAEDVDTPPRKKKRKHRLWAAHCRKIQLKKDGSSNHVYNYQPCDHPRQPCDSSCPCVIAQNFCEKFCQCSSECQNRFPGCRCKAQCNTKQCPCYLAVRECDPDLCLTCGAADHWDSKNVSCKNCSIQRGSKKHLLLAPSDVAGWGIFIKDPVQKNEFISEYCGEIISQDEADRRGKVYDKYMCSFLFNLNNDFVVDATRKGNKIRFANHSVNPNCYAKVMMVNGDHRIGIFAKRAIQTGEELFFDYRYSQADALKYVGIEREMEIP

| Binder | binding result [1] | binding result [2] |
| --- | --- | --- |
| B1 | binds | – |
| B2 | – | binds |
